First the molecules themselves.
B1: CD4001184 (Fc fusion)
scFv: DIQMTQSPSSVSASVGDRVTITCRSSQSLLFSVNQKNYLAWYQQKPGKAPKLLIYWASTRESGVPDRFSGSGSGTDFTLTISSLQPEDFATYYCQHYYSYPWTFGQGTKVEIKGGGGSGGGGSGGGGSGGGGSQVQLVQSGAEVKKPGSSVKVSCKASGYTFSTSWIEWIRQAPGQGLEWIGSILPGSGSTNYNEKFKGKATFTADTSTSTAYMELSSLRSEDTAVYYCARGDDGSYVRWYFDHWGQGTLVTVSS
notes: humanized 1D5 variant; not shown: wild-type human IgG1 Fc and the Fc-to-scFv linker
B2: CD4001192 (Fc fusion)
scFv: B1 scFv with S25A, R60L, D66S, S158T
notes: humanized 1D5 variant; not shown: wild-type human IgG1 Fc and the Fc-scFv linker
B3: CD4001186 (Fc fusion)
scFv: B1 scFv with I181M, A201V, F203I
notes: as for B1
B4: CD4001199 (Fc fusion)
scFv: B1 scFv with I181M, E195Q, K198Q, K200R, A201V, F203I
notes: humanized 1D5 variant; not shown: wildtype human IgG1 Fc and its linker to the scFv
B5: CD4001203 (Fc fusion)
scFv: B1 scFv with E168S, I170V, I181M, S183G, N194A, A201V, F203I
notes: as for B4
B6: CD4001196 (Fc fusion)
scFv: B1 scFv with E168S, I170V, S183G, E195Q, K198Q, K200R
notes: as for B2
B7: CD4001190 (Fc fusion)
scFv: B1 scFv with S25A, T59S, E61Q, S158T
notes: as for B2
B8: CD4001191 (Fc fusion)
scFv: B1 scFv with T59S, R60L, E61Q, D66S, S158T
notes: as for B2
B9: CD4001194 (Fc fusion)
scFv: B1 scFv with E168S, I170V, I181M, S183G, A201V, F203I
notes: as for B2
B10: CD4001201 (Fc fusion)
scFv: B1 scFv with N194A, T207E
notes: as for B4
B11: CD4001181 (Fc fusion)
scFv: B1 scFv with S25A, S158T
notes: as for B1
B12: CD4001185 (Fc fusion)
scFv: B1 scFv with E168S, I170V, S183G
notes: as for B1
B13: CD4001195 (Fc fusion)
scFv: B1 scFv with E168S, I170V, S183G, N194A
notes: as for B2
B14: CD4001193 (Fc fusion)
scFv: B1 scFv with S25A, T59S, R60L, E61Q, D66S, S158T
notes: as for B2
B15: CD4001197 (Fc fusion)
scFv: B1 scFv with E168S, I170V, S183G, T207E
notes: as for B4
B16: CD4001183 (Fc fusion)
scFv: B1 scFv with R60L, D66S, S158T
notes: as for B1
B17: CD4001187 (Fc fusion)
scFv: B1 scFv with N194A
notes: as for B2
B18: CD4001182 (Fc fusion)
scFv: B1 scFv with T59S, E61Q, S158T
notes: as for B1

Consider 18 molecules from US20260217833A1 (APTEVO RESEARCH AND DEVELOPMENT, published 2026).

Where a chain is given by its changes, count along the chain named.

For this test, the target named is T1, human CD40 full-length (human, UniProt P25942 21-277).
T1 construct: Also used for CD40 of Daudi cells, of CD40-expressing HEK293 cells and of the BPS CD40/NFkB HEK293 reporter cells where the row says so; also called CD4001012; CHOK1SV/CD40
T1 sequence (P25942 21-277): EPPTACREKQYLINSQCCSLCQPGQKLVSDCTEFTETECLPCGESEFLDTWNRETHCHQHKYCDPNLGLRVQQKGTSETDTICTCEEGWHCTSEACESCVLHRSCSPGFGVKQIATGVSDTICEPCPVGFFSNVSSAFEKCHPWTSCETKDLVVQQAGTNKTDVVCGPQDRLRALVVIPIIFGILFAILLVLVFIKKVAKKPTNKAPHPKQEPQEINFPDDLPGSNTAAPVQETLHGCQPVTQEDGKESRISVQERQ
Kind of test: flow cytometry, CHOK1SV/human CD40 cells.
With B1, the binding result is “binds”.
Then B2, with “binds”; and B3, with “binds”; and B4, with “binds”.
As to B5, the binding result is recorded as “binds”.
The same measure for B6: “binds”.
B7: the binding result is “binds”.
The same measure for B8: “binds”; for B9: “binds”.
Take B10: the binding result is “binds”.
The same measure for B11: “binds”.
Consider B12, for which the binding result was “binds”.
The same measure for B13: “binds”; for B14: “no binding (tested: 300 nM)”.
With B15, the binding result was “binds”.
The same measure for B16: “binds”; for B17: “binds”.
Then B18, with “binds”.
